This note sets out measurements from patent publication US20040136959A1 (published 2004).

Assay [1] addresses human IL-13 receptor α2 chain (IL-13Rα2) (human) (UniProt Q14627). Briefly: cell-based or functional assay.
The target in assay [2] is IL-13 receptor (IL-13R) as naturally present on the human cell lines (human). Kind of assay: cell-based or functional assay.
Assay [3] has as its target T1, human IL-13 receptor α2 chain (IL-13Rα2) (human, UniProt Q14627 27-380).
T1 construct: also called IL-13Rα2 chain; IL-13Rα chain
T1 sequence: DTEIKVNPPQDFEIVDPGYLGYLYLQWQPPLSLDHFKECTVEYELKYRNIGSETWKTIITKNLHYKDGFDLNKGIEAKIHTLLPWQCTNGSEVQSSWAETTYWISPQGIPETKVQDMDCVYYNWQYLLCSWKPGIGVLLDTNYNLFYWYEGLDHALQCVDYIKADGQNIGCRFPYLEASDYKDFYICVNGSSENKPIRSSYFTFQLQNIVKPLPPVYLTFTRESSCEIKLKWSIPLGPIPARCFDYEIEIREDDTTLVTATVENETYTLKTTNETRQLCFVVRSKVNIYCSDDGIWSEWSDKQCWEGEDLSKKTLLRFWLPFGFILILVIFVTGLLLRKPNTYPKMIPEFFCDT
Briefly: 125I-IL-4 radioreceptor binding on SCCHN cells, vector control against IL-13Rα2 transfectants.

For the molecule “IL-13-PE38 (from UniProt P35225 25-146; P11439 278-389; P11439 406-638)”, in assay [1], the IC50, inhibition of protein synthesis, HN12 cells (IL-13Rα2-positive) amounted to 7.5 ng/mL; the IC50, inhibition of protein synthesis, IL-13Rα2-positive SCCHN cell lines was under 10 ng/mL; the IC50, inhibition of protein synthesis, KCCTC873 cells (IL-13Rα2-positive) turned out to be 8 ng/mL; the IC50, inhibition of protein synthesis, YCUM911 cells (IL-13Rα2-positive) came out at 4 ng/mL. For the same molecule, in assay [2], the IC50, inhibition of protein synthesis, A253 cells was found to be 155 ng/mL; the IC50, inhibition of protein synthesis, Hep-2 cells amounted to 200 ng/mL; the IC50, inhibition of protein synthesis, KB cells worked out at 100 ng/mL; the IC50, inhibition of protein synthesis, KCCL871 cells turned out to be 185 ng/mL. In assay [2], this molecule came in with an IC50, inhibition of protein synthesis, KCCT871 cells of 275 ng/mL; an IC50, inhibition of protein synthesis, KCCT891 cells of over 1000 ng/mL; an IC50, inhibition of protein synthesis, KCCTCM901 cells of 110 ng/mL; an IC50, inhibition of protein synthesis, RPMI2650 cells of over 1000 ng/mL. Moreover, in assay [2], the IC50, inhibition of protein synthesis, YCU891 cells stood at 500 ng/mL; the IC50, inhibition of protein synthesis, YCUM862 cells is over 1000 ng/mL; the IC50, inhibition of protein synthesis, YCUT891 cells is over 1000 ng/mL; the IC50, inhibition of protein synthesis, YCUT892 cells was over 1000 ng/mL. The same molecule had an IC50, inhibition of protein synthesis, other 14 SCCHN cell lines in assay [2] of 100 to 1000 ng/mL.

B1: Recombinant human IL-4 (ligand, UniProt P05112 25-153, looked up)
chain: HKCDITLQEIIKTLNSLTEQKTLCTELTVTDIFAASKNTTEKETFCRAATVLRQFYSHHEKDTRCLGATAQQFHRHKQLIRFLKRLDRNLWGLAGLNSCPVKEANQSTLENFLERLKTIMREKYSKCSS
notes: also called unlabeled IL-4
Turning to B1, the binding result in assay [3] is recorded as “no binding”.
